Several values for one entry are separate records, joined by “and”; a condition that tells them apart may be missing. Equal values may be shown once. Values belong to the binder of their own block, whether it stands above or below them.
B4: Twa1_14 mutant (A125G, Q126R, ΔT127, Q128E, A130Q, M143L, E144Q, L147F, A148S, F152Y, F160V; 58–190), CTLH-CRA domain (domain or fragment, mouse, UniProt Q9D7M1 58-190, looked up)
chain: SVDLETLDERIKIREMILKGQIQEAIALINSLHPELLDTNRYLYFHLQQQHLIELIRQRETEAALEFGRELQEQGEESRECLTELQRTFSLLAYDSPEESPVGDLLHMMQRQKVWSEVNQAVLDYENRESTP
notes: Twa1, mouse, CTLH-CRA domain 58-190 with eleven RanBP10-like changes; also called Twa_14; source: E. coli BL21 CodonPlus (DE3) RIL, purified (Ni-IDA, 3C cleavage, SEC); not shown: His6, N-terminal, cleaved
B7: muskelin CTLH-CRA domain (205–735 Δ248–625) (domain or fragment, rat, UniProt Q99PV3 205-735, looked up)
chain: EHPMLTDMHDKLVLKGDFDACEELIEKAVNDGLFNQYISQQEYPSKDYLLRHCKYLIRKHRFEEKAQMDPLSALKYLQNDLYITVDHSDPEETKEFQLLASALFKSGSDFTALGFSDVDHTYAQRTQLFDTLVNFFPDSMTPPKGNLVDLITL
notes: muskelin, rat, fusion of the CTLH motif and the C-terminus (CRA^N-like): residues 205-735 with 248-625 deleted; also called muskelin wt; CTLH-Ct construct; source: E. coli BL21 CodonPlus (DE3) RIL, purified as described previously (van gen Hassend et al., 2023)

What was measured:
[1] = target: the molecule itself; test: SEC-MALS; ITC-assembled samples: excess RanBP9-Twa1 added to pre-assembled Twa1_52-muskelin or Twa1_52-Wdr26; Superose 6 10/300 GL
[2] = target: T1, RanBP9 (69–653)-Twa1 (1–228) complex (mouse, UniProt P69566 69-653; Q9D7M1 1-228); test: ITC; competition: RanBP9-Twa1 or RanBP10-Twa1 complex (160 μM) titrated into pre-formed Twa1_52-muskelin or Twa1_52-Wdr26 complex (16 μM); 25°C; competitive binding model with the parameters of the first titration; details: both partners purified
T1 construct: RanBP9, mouse, residues 69-653; Twa1, mouse, residues 1-228; In the text on the KD values the complex is called simply RanBP9; also called RanBP9-Twa1; source: E. coli BL21 CodonPlus (DE3) RIL, complex purified as described previously (van gen Hassend et al., 2023)
T1 sequence (P69566 69-653, chain 1 of 2): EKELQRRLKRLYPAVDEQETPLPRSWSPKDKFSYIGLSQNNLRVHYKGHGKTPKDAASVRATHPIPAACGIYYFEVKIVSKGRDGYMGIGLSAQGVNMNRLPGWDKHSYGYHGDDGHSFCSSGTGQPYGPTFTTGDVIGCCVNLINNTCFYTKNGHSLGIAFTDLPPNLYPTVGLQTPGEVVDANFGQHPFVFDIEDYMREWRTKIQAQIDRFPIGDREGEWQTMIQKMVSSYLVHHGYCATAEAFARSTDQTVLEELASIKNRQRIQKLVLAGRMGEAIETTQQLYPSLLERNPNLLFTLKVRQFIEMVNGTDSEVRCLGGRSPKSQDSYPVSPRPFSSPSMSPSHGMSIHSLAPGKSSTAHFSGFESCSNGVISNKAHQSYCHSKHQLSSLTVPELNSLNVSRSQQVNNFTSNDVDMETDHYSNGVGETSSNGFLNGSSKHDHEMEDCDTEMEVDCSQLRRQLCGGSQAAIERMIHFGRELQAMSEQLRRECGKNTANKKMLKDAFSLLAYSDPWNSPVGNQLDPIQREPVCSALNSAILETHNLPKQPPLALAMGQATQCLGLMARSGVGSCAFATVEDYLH
T1 sequence (Q9D7M1 whole entry, chain 2 of 2, the tested form may be a part): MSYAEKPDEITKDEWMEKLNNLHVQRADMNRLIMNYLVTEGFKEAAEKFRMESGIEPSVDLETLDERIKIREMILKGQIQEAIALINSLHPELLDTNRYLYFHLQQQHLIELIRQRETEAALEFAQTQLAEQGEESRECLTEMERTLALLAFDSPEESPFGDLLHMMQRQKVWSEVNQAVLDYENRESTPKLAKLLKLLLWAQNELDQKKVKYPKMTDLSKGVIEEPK

[3] = target: the molecule itself; test: SEC-MALS; Maea CTLH-CRA dilution series, Superdex 200 10/300 GL; molar masses of 0.3 ml peak fractions against concentration, one-site binding fit; the constant is of the step tetramer (dimer of dimers) to dimers
[4] = target: T2, Twa1_10 mutant (A130Q, L147F, F152Y, F160V), CTLH-CRA domain (mouse, UniProt Q9D7M1 58-190, A130Q | L147F | F152Y | F160V); test: native gel or EMSA; native agarose gel electrophoresis (NAGE): CTLH-CRA domains at 200 μM incubated with the partner at least 30 min at room temperature; 0.8% agarose, 25 mM Tris, 200 mM glycine, 4°C; Coomassie; details: both partners purified
T2 construct: Twa1, mouse, CTLH-CRA domain 58-190 with four RanBP10-like substitutions; source: E. coli BL21 CodonPlus (DE3) RIL, purified (Ni-IDA, 3C cleavage, SEC); not shown: His6, N-terminal, cleaved

[5] = target: B4; test: as above; details: both partners purified
Twa1 (1–228) = target: T3, Twa1 (1–228) (mouse, UniProt Q9D7M1 1-228); test: SEC-MALS; Superdex 200 10/300 GL; Twa1 (1–228) alone, co-expressed Twa1-Rmnd5a (CTLH-CRA) and Twa1-Maea (CTLH-CRA) complexes, Maea double mutant (Y272A, Y275A); details: both partners purified
T3 construct: Twa1, mouse, residues 1-228; A homodimer on its own (SEC-MALS); one copy pairs with RanBP10 in the heterodimer of PDB 9SOC; also called full-length dimeric Twa1; source: E. coli BL21 CodonPlus (DE3) RIL, purified as described previously (van gen Hassend et al., 2023)
T3 sequence (Q9D7M1 whole entry, the tested form may be a part): as the sequence (Q9D7M1 whole entry, chain 2 of 2, the tested form may be a part) above

[6] = target: the molecule itself; test: as above
[7] = target: B7; test: ITC; muskelin CTLH-CRA (160 μM, syringe) titrated into RanBP10 or Twa1 CTLH-CRA variants (16 μM, cell); 25°C; 20 mM tricine pH 8.0, 500 mM NaCl, 1 mM TCEP; one-site model; details: both partners purified
[8] = target: T4, RanBP9 CTLH-CRA domain (324–614, Δ391–534) (mouse, UniProt P69566 324-614, Δ391–534); test: SEC-MALS; CTLH-CRA domain complexes co-expressed in E. coli and purified as complexes; Superdex 75 10/300 GL; 20 mM tricine pH 8.0, 500 mM NaCl, 1 mM TCEP; details: both partners purified
T4 construct: RanBP9, mouse, fusion of CTLH and CRA^N: residues 324-614 with the linker 391-534 deleted (without the CRA^C segment); A longer construct with the CRA^C segment (324–638, Δ391–534) was crystallised alone (PDB 9SNE); also called R9
T4 sequence (P69566 other isoform, or with tags, fused parts or gaps Δ391–534 | Δ391–534 | mutant): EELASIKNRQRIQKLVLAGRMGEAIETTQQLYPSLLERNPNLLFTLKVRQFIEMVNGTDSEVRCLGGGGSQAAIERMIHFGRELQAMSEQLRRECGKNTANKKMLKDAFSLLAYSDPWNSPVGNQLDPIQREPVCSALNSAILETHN

[9] = target: T5, Twa1_52 mutant (A125G, Q126R, Δ127T, L140K, E144K, L147F, F152Y, F160V), CTLH-CRA domain (mouse, UniProt Q9D7M1 58-190, A125G | Q126R | Δ127T | L140K | E144K | L147F | F152Y | F160V); test: SEC-MALS; purified CTLH-CRA domains alone or mixed (RanBP10 and Twa1 variants with Maea or muskelin), final concentration 250 μM, Superdex 75 10/300 GL; details: both partners purified
T5 construct: Twa1, mouse, CTLH-CRA domain 58-190 with eight changes; source: E. coli BL21 CodonPlus (DE3) RIL, purified (Ni-IDA, 3C cleavage, SEC); also tagless, co-expressed with muskelin or Wdr26 CTLH-CRA domain; not shown: His6, N-terminal, cleaved

Kd [2]: 0.412 nM
B1: Wdr26 (102–641) (domain or fragment, mouse, UniProt Q8C6G8 102-641, looked up)
chain: QSDEDVIRLIGQHLNGLGLNQTVDLLMQESGCRLEHPSATKFRNHVMEGDWDKAENDLNELKPLVHSPHAIVVRGALEISQTLLGIIVRMKFLLLQQKYLEYLEDGKVLEALQVLRCELTPLKYNTERIHVLSGYLMCSHAEDLRAKAEWEGKGTASRSKLLDKLQTYLPPSVMLPPRRLQTLLRQAVELQRDRCLYHNTKLDNNLDSVSLLIDHVCSRRQFPCYTQQILTEHCNEVWFCKFSNDGTKLATGSKDTTVIIWQVDPDTHLLKLLKTLEGHAYGVSYIAWSPDDSYLVACGPDDCSELWLWNVQTGELRTKMSQSHEDSLTSVAWNPDGKRFVTGGQRGQFYQCDLDGNLLDSWEGVRVQCLWCLSDGKTVLASDTHQRVRGYNFEDLTDRNIVQEDHPIMSFTISKNGRLALLNVATQGVHLWDLQDRVLVRKYQGVTQGFYTIHSCFGGHNEDFIASGSEDHKVYIWHKRSELPIAELTGHTRTVNCVSWNPQIPSMMASASDDGTVRIWGPAPFIDHQNIEEECSSMDS
notes: Wdr26, mouse, residues 102-641; also called dimeric Wdr26; (near) full-length Wdr26; source: E. coli BL21 CodonPlus (DE3) RIL, purified as described previously (van gen Hassend et al., 2023)
stoichiometry N [1]: 2

B2: Maea CTLH-CRA domain (156-279) (domain or fragment, mouse, UniProt Q4VC33 156-279, looked up)
chain: NIEMFLTAKEVEESLERRETATCLAWCHDNKSRLRKMKSCLEFSLRIQEFIELVRQNKRLDAVRHARKHFSQAEGSQLDEVRQVMGMLAFPPDTHISPYKDLLDPARWRMLIQQFRYDNYRLHQ
notes: Maea, mouse, residues 156-279; In solution between a dimer and a tetramer (dimer of dimers), depending on concentration; source: E. coli BL21 CodonPlus (DE3) RIL, purified (Ni-IDA, 3C cleavage, SEC); also co-expressed with Twa1 (1–228); not shown: His6, N-terminal, cleaved
Kd [3]: ~5000 nM | stoichiometry N [3]: 2 and 4 | binding result [4]: binds | binding result [5]: binds | stoichiometry N (Twa1 (1–228)): 1

B3: Maea CTLH-CRA domain double mutant (Y272A, Y275A) (domain or fragment, mouse, UniProt Q4VC33 156-279, looked up)
chain: NIEMFLTAKEVEESLERRETATCLAWCHDNKSRLRKMKSCLEFSLRIQEFIELVRQNKRLDAVRHARKHFSQAEGSQLDEVRQVMGMLAFPPDTHISPYKDLLDPARWRMLIQQFRADNARLHQ
notes: Maea, mouse, CTLH-CRA domain; also called Maea double mutant; source: E. coli BL21 CodonPlus (DE3) RIL, purified (Ni-IDA, 3C cleavage, SEC); not shown: His6, N-terminal, cleaved
stoichiometry N [6]: 2

Binder: B4
Kd [7]: 192 nM

B5: muskelin CTLH-CRA domain, C-terminally shortened (205–719, Δ248–624) (domain or fragment, rat, UniProt Q99PV3 205-719, looked up)
chain: EHPMLTDMHDKLVLKGDFDACEELIEKAVNDGLFNQYISQQEYRPSKDYLLRHCKYLIRKHRFEEKAQMDPLSALKYLQNDLYITVDHSDPEETKEFQLLASALFKSGSDFTALGFSDVDHTYAQRTQLFDTLVNFFP
notes: muskelin, rat, residues 205-719 with 248-624 deleted; Insoluble on its own; soluble only when co-expressed with RanBP9/10 CTLH-CRA domains; also called muskelin (shortened C-terminus); Mkln; not shown: His6, N-terminal, cleaved
stoichiometry N [8]: 1

B6: Rmnd5a CTLH-CRA domain (147-275) (domain or fragment, mouse, UniProt Q80YQ8 147-275, looked up)
chain: DPSQKEPFVELNRILEALKVRVLRPALEWAVSNREMLIAQNSSLEFKLHRLYFISLLMGGTTNQREALQYAKNFQPFALNHQKDIQVLMGSLVYLRQGIENSPYVHLLDANQWADICDIFTRDACALLG
notes: Rmnd5a, mouse, residues 147-275; Could not be purified on its own; soluble when co-expressed with Twa1; source: E. coli BL21 CodonPlus (DE3) RIL, co-expressed with Twa1 (1–228), complex purified (Ni-IDA, 3C cleavage, SEC); not shown: His6, N-terminal, cleaved
stoichiometry N (Twa1 (1–228)): 1

Binder: B7
stoichiometry N [9]: 1

Kd [2]: 0.0795 nM
B8: muskelin (1–735) (natural protein, rat, UniProt Q99PV3 1-735, looked up)
chain: MAAGGAVAAAPECRLLPYALHKWSSFSSTYLPENILVDKPNDQSSRWSSESNYPPQYLILKLERPAIVQNITFGKYEKTHVCNLKKFKVFGGMNEENMTELLSSGLKNDYNKETFTLKHKIDEQMFPCRFIKIVPLLSWGPSFNFSIWYVELSGIDDPDIVQPCLNWYSKYREQEAIRLCLKHFRQHNYTEAFESLQKKTKIALEHPMLTDMHDKLVLKGDFDACEELIEKAVNDGLFNQYISQQEYKPRWSQIIPKSTKGDGEDNRPGMRGGHQMVIDVQTETVYLFGGWDGTQDLADFWAYSVKENQWTCISRDTEKENGPSARSCHKMCIDIQRRQIYTLGRYLDSSVRNSKSLKSDFYRYDIDTNTWMLLSEDTAADGGPKLVFDHQMCMDSEKHMIYTFGGRILTCNGSVDDSRASEPQFSGLFAFNCQCQTWKLLREDSCNAGPEDIQSRIGHCMLFHSKNRCLYVFGGQRSKTYLNDFFSYDVDSDHVDIISDGTKKDSGMVPMTGFTQRATIDPELNEIHVLSGLSKDKEKREENVRNSFWIYDIVRNSWSCVYKNDQAAKENLSKSLQEEEPCPRFAHQLVYDELHKVHYLFGGNPGKSCSPKMRLDDFWSLKLCRPSKDYLLRHCKYLIRKHRFEEKAQMDPLSALKYLQNDLYITVDHSDPEETKEFQLLASALFKSGSDFTALGFSDVDHTYAQRTQLFDTLVNFFPDSMTPPKGNLVDLITL
notes: muskelin, rat, residues 1-735; also called full-length muskelin; tetrameric muskelin; source: E. coli BL21 CodonPlus (DE3) RIL, purified as described previously (van gen Hassend et al., 2023)
stoichiometry N [1]: 4
